Results from patent US20170335016A1 (Kyowa Kirin, published 2017).
Numbering of substitutions follows the chain as printed.

B1: anti-CD28 antibody 341VL34 (antibody, V domains shown)
VH: EVQLVESGGGLVKPGGSLRLSCGGSGFTFNNAWMNWVRQAPGKGLEWVGRIKGKTDGGTADYAAPVKGRFTISRDYSKNTLYLQMNSLTTEDTAVYYCNTDLPYYYGSGRYSGMDVWGQGTTVTVSS
VL: EIVLTQSPATLSLSPGERATLSCRASQSVSSYLAWYQQKPGQAPRLLIYDASNRATGIPARFSGSGSGTDFTLTISSLEPEDFAVYYCQQRSNTFGPGTKVDIK
notes: Made in the N5KG2Ser vector; Tested as culture supernatant; not shown: human immunoglobulin kappa light chain constant region
B2: anti-CD28 antibody 341VL36 (antibody, V domains shown)
VH: B1 VH with T89K, A94G, N99T, D101Y, G109E, Y111W
VL: B1 VL
notes: as for B1
B3: 341VL34 scFv (scFv)
scFv: EVQLVESGGGLVKPGGSLRLSCGGSGFTFNNAWMNWVRQAPGKGLEWVGRIKGKTDGGTADYAAPVKGRFTISRDYSKNTLYLQMNSLTTEDTAVYYCNTDLPYYYGSGRYSGMDVWGQGTTVTVSSGGGGSGGRASGGGGSEIVLTQSPATLSLSPGERATLSCRASQSVSSYLAWYQQKPGQAPRLLIYDASNRATGIPARFSGSGSGTDFTLTISSLEPEDFAVYYCQQRSNTFGPGTKVDIK
notes: phage culture supernatant
B4: 341VL36 scFv (scFv)
scFv: B3 scFv with T89K, A94G, N99T, D101Y, G109E, Y111W
notes: phage culture supernatant

How the values were obtained:
[1] = molecular target: T1, human-CD28-Fc fusion protein (human, UniProt P10747 19-152); assay: ELISA, human-CD28-Fc coated at 1 µg/mL, culture supernatant, anti-human κ HRP detection
T1 construct: also called Fc fusion protein of the human-CD28 extracellular domain with IgG; hECD28-Fc
T1 sequence (P10747 19-152): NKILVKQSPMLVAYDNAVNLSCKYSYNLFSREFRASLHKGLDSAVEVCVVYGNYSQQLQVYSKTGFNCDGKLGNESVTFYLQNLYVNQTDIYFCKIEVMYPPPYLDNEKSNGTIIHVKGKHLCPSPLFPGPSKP
Method: (§1) The human-CD4O-Fc fusion protein and the human-CD28-Fc fusion protein were adjusted to give a concentration of 1 μg/mL using coating buffer (50 mM carbonate buffer, pH 9). To a well, 50 μL/well of the obtained human-CD4O-Fc fusion prostein or the obtained human-CD28-Fc fusion protein was added into the Maxisorp Plate (manufactured by Nalge Nunc International) respectively, and incubated at 4° C. overnight to be immobilized. Then, 200 μL/well of blocking reagent (SuperBlock (registered trademark) Blocking Buffer, manufactured by Pierce Protein Research) was added to the well, followed by incubation at room temperature for 30 minutes for blocking. Then, 50 μL/well of the culture supernatant comprising each antibody obtained in above Examples was added to the well followed by incubation at room temperature for 1 hour. After washing three times with Washing buffer (0.1% Tween20-TBS), Affinity Isolated Antibody HRP Conjugated Goat F(ab)₂ anti-Human κ (manufactured by EY Laboratories Inc) was diluted with assay diluent (0.1% Tween20-TBS containing Block Ace manufactured by Dainippon Sumitomo Pharma Co. Ltd. by 10%). Then, 50 μL of the obtained solution was added to each well followed by incubation at a room temperature for 1 hour. After washing three times with washing buffer, 50 μL of TMB (manufactured by Dako) coloring substrate solution was added to each well, followed by incubation in a dark room at room temperature. After developping color, 0.5 M vitriol (50 μL/well) was added to stop the reaction. The absorbance at the wavelength of 450 nm was measured with a microplate reader (SPECTRAMAX190, manufactured by Molecular Devices Inc).

[2] = molecular target: T2, human-CD40-Fc fusion protein (human, UniProt P25942 21-193); assay: ELISA, human-CD40-Fc coated at 1 µg/mL, culture supernatant, anti-human κ HRP detection
T2 construct: also called human-CD4O-Fc fusion protein; not shown: Fc part; origin and limits not described
T2 sequence (P25942 21-193 limits assumed): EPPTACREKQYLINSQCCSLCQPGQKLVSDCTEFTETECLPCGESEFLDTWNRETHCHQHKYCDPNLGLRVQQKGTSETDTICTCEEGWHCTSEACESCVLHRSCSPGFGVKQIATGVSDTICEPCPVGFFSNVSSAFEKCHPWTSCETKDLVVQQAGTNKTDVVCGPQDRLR
Method: as §1, with “After washing three times with washing buffer, 50 μL of TMB (manufactured by Dako) coloring substrate solution was added to each well, followed by incubation in a dark room at room temperature. After developping color, 0.5 M vitriol (50 μL/well) was added to stop the reaction.” left out

[3] = molecular target: T1, human-CD28-Fc fusion protein; assay: phage ELISA, human-CD28-Fc coated at 2 µg/mL, anti-E tag HRP detection
Method: Each single colony obtained from the antibody library to which the panning had been applied was seeded in 200 μL of 2×YTAG culture medium and subjected to a shaking culture at 30° C. for 4 to 5 hours. Then, 200 μL of 1×10¹⁰ pfu/mL M13KO helper phage was added to the culture solution for the infection (the shaking culture at 30° C. for 1 hour). After changing the culture medium to 2×YTAK, the shaking culture was carried out at 30° C. overnight. The binding property to the antigen was examined by the following steps (ELISA) using this culture supernatant as a phage solution.
The human-CD28-Fc fusion protein was diluted with Coating buffer (50 mM carbonate buffer, pH 9) to give a concentration of 2 μg/mL. The obtained solution was put into the Maxisorp Plate (manufactured by Nalge Nunc International) at 50 μL/well and incubated at 4° C. overnight to be immobilized. Then, to the well, 200 μL/well of blocking reagent (SuperBlock (registered trademark) Blocking Buffer, manufactured by Pierce Protein Research) was added, the resulting object was incubated at a room temperature for 30 minutes to complete the blocking. To the well, 50 μL/well of each phage solution was added, and incubated at a room temperature for 1 hour. […] The absorbance at the wavelength of 450 nm was measured with a microplate reader (SPECTRAMAX190, manufactured by Molecular Devices Inc).

Binder | binding result [1] | binding result [2] | binding result [3]
B1 | binds | no binding | 
B2 | binds | no binding | 
B3 |  |  | binds
B4 |  |  | binds
